Laboratory results taken from paper PMC6943196.

Biological target: Tolypothrix sp. PCC 7601 Orange Carotenoid Protein 1 (OCP1) (Tolypothrix sp. PCC 7601)
Assay: crystal structure

stoichiometry N: 2
Substance: Tolypothrix sp. PCC 7601 Orange Carotenoid Protein 1 (OCP1) (natural protein)
